Data: patent US20080009025A1, “PROTEIN KINASE REGULATION” (priority 1999, published 2008)
Where a SMILES comes first, the peptide text is derived from it.

Key:
PDK1 [1] = assay: Yeast two-hybrid interaction with PDK1; type: binding, human; conditions: PDK1 L155 mutants
PDK1 [2] = molecular target: T1, PDK1 (Homo sapiens, UniProt O15530); assay: Yeast two-hybrid interaction with PDK1; type: binding; design: expressed in transfected cells; host or cells: Saccharomyces cerevisiae strain Y190; conditions: wild type PDK1
T1 sequence (O15530 1-556): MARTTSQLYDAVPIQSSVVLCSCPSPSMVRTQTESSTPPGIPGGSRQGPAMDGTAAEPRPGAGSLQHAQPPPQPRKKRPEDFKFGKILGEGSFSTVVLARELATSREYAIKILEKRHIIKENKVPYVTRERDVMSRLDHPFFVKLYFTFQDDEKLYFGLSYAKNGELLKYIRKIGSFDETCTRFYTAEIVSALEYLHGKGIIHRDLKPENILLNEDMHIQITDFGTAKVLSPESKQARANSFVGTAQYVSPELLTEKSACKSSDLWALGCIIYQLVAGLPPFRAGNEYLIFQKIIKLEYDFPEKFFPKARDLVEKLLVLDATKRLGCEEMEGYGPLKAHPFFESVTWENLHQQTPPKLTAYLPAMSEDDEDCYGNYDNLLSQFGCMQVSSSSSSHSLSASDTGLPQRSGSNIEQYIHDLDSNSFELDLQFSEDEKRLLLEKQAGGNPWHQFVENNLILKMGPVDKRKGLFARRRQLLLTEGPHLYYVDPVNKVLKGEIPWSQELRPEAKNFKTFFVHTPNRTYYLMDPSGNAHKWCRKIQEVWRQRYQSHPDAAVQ

PDK1 [3] = molecular target: T2, PDK1 (Homo sapiens, UniProt O15530); assay: PDK1 activity towards synthetic peptide substrates T308tide or PDKtide; type: biochemical
T2 construct: Full length PDK1 (residues 1-556); made in house; host or cells: 293 cells
T2 sequence (O15530 52-556): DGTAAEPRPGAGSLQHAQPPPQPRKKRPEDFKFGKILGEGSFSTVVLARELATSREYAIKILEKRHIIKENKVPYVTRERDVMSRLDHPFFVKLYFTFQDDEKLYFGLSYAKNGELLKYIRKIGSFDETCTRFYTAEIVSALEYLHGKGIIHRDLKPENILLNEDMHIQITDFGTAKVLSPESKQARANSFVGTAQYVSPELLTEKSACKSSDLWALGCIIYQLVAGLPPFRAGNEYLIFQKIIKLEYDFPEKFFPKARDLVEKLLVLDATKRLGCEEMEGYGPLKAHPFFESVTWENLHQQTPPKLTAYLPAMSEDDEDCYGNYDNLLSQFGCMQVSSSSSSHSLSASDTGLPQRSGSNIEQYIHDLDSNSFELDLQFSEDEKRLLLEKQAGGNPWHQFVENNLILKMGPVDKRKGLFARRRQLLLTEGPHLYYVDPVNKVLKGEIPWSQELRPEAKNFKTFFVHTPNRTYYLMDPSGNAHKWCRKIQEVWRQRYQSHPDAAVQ
Protocol: FIG. 12. PDK1 is activated and stabilised through its interaction with PIFtide. (A) GST-PDK1 activity was measured in the presence of increasing concentrations of wild type (wt) PIFtide (closed circles) or a mutant D978A PIFtide (open circles) using the synthetic peptide substrate termed T308tide, as described in Material and Methods. The data was fitted to a hyperbola using the Kaleidagraph™ software. The connection needed to obtain 50% activation of PDK1 was […] for wt-PIFtide and 1.1 μM for D978A-PIFtide. The assay shown was performed in triplicate and there was less than 5% difference between each assay. Similar results were obtained in 2 further experiments (B)—The wild type GST-PDK1 (circles) or the L155D mutant of GST-PDK1 (squares) was incubated in the presence (closed symbols) or absence (open symbols) of […] PIFtife and then for 2 min at the indicated temperatures, rapidly brought to 0° C. (see Materials and Methods), and 2 min later assayed at 30° C. for 10 min using T308tide as substrate. The activity of PDK1 obtained by incubation at 30° C. was taken as 100%. The assay shown was performed in duplicate with similar results obtained in two separate experiments.
FIG. 14. […] (A) His-PDK1 was assayed for activity using as substrate the indicated concentration of either PDKtide (open triangles) or T308tide (open circles). (B) HIS-PDK1 was assayed for activity in the presence if PDKtide (25 μM closed triangles) or T308tide (100 μM closed circles) in the presence of the indicated concentrations of PIFtide. The assay was performed in triplicates with less than 5% difference between the triplicate samples. Similar results were obtained in 3 separate experiments.
PDK1's ability to phosphorylate Thr308 of PKBα was measured using a mutant of GST-PKBα in which Ser473 was mutated to Asp (GST-473D PKBα) in the presence of phospholipid vesicles containing sn-1-stearoyl-2-arachidonoyl-D-PtdIns (3, 4, 5)P3 [13]. The ability of wild type and mutant PDK1 to phosphorylate the synthetic peptides T308tide or PDKtide was carried out in 20 μl assays containing 50 mM Tris/HCl pH 7.5, 0.1% 2-mercaptoethanol 10 mM MgCl2, 100 μM [γ^32P]ATP (˜500 cpm/pmol) 0.5 μM microcystin-LR.PDK1 and the peptide concentrations indicated under Results. After incubation for 10 min at 30° C. the reaction was stopped by addition of 20 μl of 150 mM phosphoric acid. 35 μl of the resultant mixture was spotted into P81 phosphocellulose paper (2×2 cm) and the papers washed and analysed as described previously for assays of MAP kinase. […] Control assays were carried out in parallel in which either PDK1, or peptide substrate were omitted; these values were always less than 5% of the activity measured in the presence of these reagents. […]

PDK1 [4] = molecular target: T1, PDK1; assay: Glutathione-Sepharose pull-down of PDK1 with S6K1 or SGK1 from 293 cells; type: binding; design: Full length PDK1 (residues 1-556); made in house; host or cells: 293 cells; conditions: Flag-tagged S6K1 forms; wild type GST-PDK1
Protocol: FIG. 21. Interaction of S6K1 and SGK1 with PDK1. 293 cells were transiently transfected with DNA constructs expressing GST, GST-PDK1 wt or PDK1 L155E together with constructs expressing either wild type or the indicated mutants or truncations of HA tagged S6K1 (A) or wild type GST-ΔN-SGK1 or 422D mutant. 36 h post transfection the cells were lysed and GST fusion protein was purified by affinity chromatography on glutathione-Sepharose beads. Aliquots were electrophoresed on a 10% SDS-polyacrylamide gel, stained with Coomassie Blue, or immunoblotted using an anti-FLAG antibody to detect FLAG-S6K1 and anti-Myc antibody to detect Myc-PDK1. To establish that the wild type and mutant proteins were expressed at similar levels, […] of total lysate was electrophoresed on a 10% SDS-polyacrylamide gel and immunoblotted using the indicated antibodies. Duplicates of each condition are shown. Similar results were obtained in two different experiments.
Binding of PDK1 to SGK1 and S6K1. For the data presented in FIG. 22, 293 cells were cotransfected with 10 μg of the wild type or mutant PDK1 plasmid and 10 μg of either the wild type or mutant S6K1 or SGK1. […] The gels were either stained with Coomassie blue, or analysed by immunoblotting with either anti-Flag or anti-Myc antibodies (described below).

With “PKACT: C-terminal fragment of PKA composed of residues 129-350” the “two-hybrid interaction with L155S, L155D or L155E mutants of PDK1” value (PDK1 [1]) was “greatly reduced” and the “two-hybrid interaction with full length PDK1” value (PDK1 [2]) was “positive interaction”.

With “KTFCGTPEYLAPEVRREPRILSEEEQEMFRDFDYLADWC [PDKtide, 39 amino acid polypeptide composed of T308tide fused to PIFtide]” the “rate of phosphorylation by PDK1 relative to T308tide” value (PDK1 [3]; assayed at 100 μM) was “over 100 fold”.

In the case of CC(C)C[C@H](NC(=O)[C@H](Cc1ccc(O)cc1)NC(=O)[C@H](CCC(=O)O)NC(=O)[C@@H]1CCCN1C(=O)[C@@H](NC(=O)CNC(=O)[C@H](CS)NC(=O)[C@H](Cc1ccccc1)NC(=O)[C@@H](NC(=O)[C@@H](N)CCCCN)[C@@H](C)O)[C@@H](C)O)C(=O)N[C@@H](C)C(=O)N1CCC[C@H]1C(=O)N[C@@H](CCC(=O)O)C(=O)N[C@H](C(=O)N[C@@H](CCCNC(=N)N)C(=O)N[C@@H](CCCNC(=N)N)C(=O)O)C(C)C [T308tide, KTFCGTPEYLAPEVRR, reference compound] (H-KTFCGTPEYLAPEVRR-OH), the Km (PDK1 [3]; read-out: Km of PDK1 for peptide substrate) is reported as > 10 mM.

In the case of “full length S6K1: Flag epitope tagged full length S6K1”, the “interaction with GST-PDK1” value (PDK1 [4]) is reported as “failed to interact”.

With “full length S6K1[T412E]: Flag epitope tagged full length S6K1 with Thr412 to Glu” the “interaction with GST-PDK1” value (PDK1 [4]) was “failed to interact”.
